Results on three molecules are retold here after paper PMC6450946.

Assay [1] has as its target SRM-HtrM fusion protein (H. marismortui SRM and HtrM joined by a flexible linker) expressed in H. salinarum (Haloarcula marismortui). Put plainly: SDS-PAGE and Western blot; lysate of transformed H. salinarum (cells lysed in distilled water, sonicated); detection with Penta-His HRP conjugate. (In general: Immunoblotting shows a protein as a band on a membrane.)
In assay [2] the target is HtrM, cognate transducer of SRM from Haloarcula marismortui, as the C-terminal part of the SRM-HtrM fusion protein (Haloarcula marismortui).
Assay [3] deals with HtrI, cognate transducer of SRI from Haloarcula marismortui, as part of the HmSRI-HtrI fusion protein (Haloarcula marismortui).

By stoichiometry N is commonly meant a count of units in the complex or per binding partner. Turning to “SRM-HtrM fusion protein (H. marismortui SRM and HtrM joined by a flexible linker) expressed in H. salinarum”, in assay [1], the stoichiometry N turned out to be 2.

B1: Sensory rhodopsin SRM from Haloarcula marismortui, as the N-terminal part of the SRM-HtrM fusion protein (receptor)
chain: MAQEIVWYGAGAGAFFVSAVVFVWFAATRGNIRSSFYYLPPIHTSVAGAAYVAMALIAGGQLGDTVSITTLRFADWIVSTPIITYYLARLAGVDTQTRRLAVAANVVMIGVGYGFVSMSGSLRWIAFAVSTVAFIGLLYLYIKTFARKINAATASVRSLFQSLRDLTVVTWSLYPVVYFLGPLGTGIIQAPDLNFLVAVLDTIAKVGFMSILLVRYNSVETFVDSWSVAPAK
In assay [2], B1 yielded a Photocycle kinetics (Tau value) of detergent-solubilized HmSRM-HtrM fusion, acidic (pH 6.1-6.5) of 4.05 s and a Photocycle kinetics (Tau value) of detergent-solubilized HmSRM-HtrM fusion, alkaline (pH 7.6-7.9) of 5.62 s.

B2: Sensory rhodopsin I from Haloarcula marismortui, as part of the HmSRI-HtrI fusion protein (receptor)
chain: MDAVSVVYGITAAGFAVGVAIVGFLYASLEGSDERPILAALALIPGVAGISYVAMVFGIGTVTIGETTLVGFRYLDWVVTTPLLVGFIGYTAGASRRAIFGVMAADALMILAGVGAVVAAGTLKWALFGVSAVFHISLFAYLYLIFPRSVPDDPQRIGLFSLLKNHVGLLWIAYPLVWLAGPEGLGFATYVGVSITYAFLDLLAKVPYVYFFYARRQVFATKLLRDSGDTTVTPAD
As to B2, in assay [3], the Photocycle kinetics (Tau value) of detergent-solubilized HmSRI-HtrI fusion, acidic (pH 6.1-6.5) stood at 2.38 s and the Photocycle kinetics (Tau value) of detergent-solubilized HmSRI-HtrI fusion, alkaline (pH 7.6-7.9) amounted to 4.49 s.
